Drawing on the supplement of paper PMC10567573, this text covers protein stability index for 53 sequences.

± gives the standard deviation.

The series is described as follows: protein stability index of a GFP-peptide fusion (GPS, HEK-293T) (PSI 1-6); higher = more stable. The settings on record: c terminus: a fixed tail appended.
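Also: 24-mer peptide tiles fused after GFP, lentivirally expressed, FACS-sorted into six equal bins by GFP/DsRed ratio, decoded by Illumina sequencing, PSI is the read-weighted mean bin number.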

In the case of QRLLGEDKFQWLAGLAPPSLFARA [ANKRD9], the protein stability index by setting is: (treatment: DMSO) 2.59 ± 0.12; (treatment: MLN4924 1 uM, 8 h) 2.66 ± 0.28.
The like results for QSCARAVVPSYIPLVKKHCDDSFT [CPOX] were, in that order, 2.73 ± 0.2 and 2.71 ± 0.27.
As to QSCLLVIFATKPHVLPAVLAEVAP [PYCR3], the protein stability index reads like this: (treatment: DMSO) 3.09 ± 0.75; (treatment: MLN4924 1 uM, 8 h) 3.32 ± 0.74.
QSGGRLRRPVNVPLDMFSEEIKFY [KCNA1] gave a protein stability index (treatment: DMSO) of 2.52 ± 0.28 and a protein stability index (treatment: MLN4924 1 uM, 8 h) of 2.75 ± 0.28.
Consider QSHISDMSVILSMDNNRNLDLDSI [KRT71], for which the protein stability index reads like this: (treatment: DMSO) 3.87 ± 0.4; (treatment: MLN4924 1 uM, 8 h) 3.72 ± 0.35.
On the same counts, the results for QVHQGIKGMVLDENYNNLANAVIS [CPN1] are 2.52 ± 0.23 and 2.62 ± 0.34.
The like results for QVLRNNPDALSDVGEVPYWVLEPV [ELOA2] were, in that order, 2.92 ± 0.52 and 3.34 ± 0.44.
The like results for QVLYEWEQGFSQSFTQEQVADIDG [CTNNB1] were, in that order, 4.24 ± 0.3 and 4.09 ± 0.46.
With QYPAGTQGEQLEVPERLLVVLDME [SPSB2], the protein stability index (treatment: DMSO) worked out at 3.82 ± 0.45 and the protein stability index (treatment: MLN4924 1 uM, 8 h) was determined as 3.69 ± 0.19.
In the case of RAILYPCHGMSSQLVRYSADGLLQ [GALNT9], the protein stability index runs as follows: (treatment: DMSO) 2.69 ± 0.22; (treatment: MLN4924 1 uM, 8 h) 2.76 ± 0.27.
On the same counts, the results for RAQLHVQGLLHEAGSTDDRIVVPQ [SPNS1] are 4.15 ± 0.1 and 4.23 ± 0.22.
The like results for RAYLFNSVVNVGCGPAEERVLLTG [YPEL3] were, in that order, 2.72 ± 0.56 and 2.87 ± 0.71.
The like results for RCKEENTIILQQLLPLRTKVAKLL [NLN] were, in that order, 2.47 ± 0.25 and 2.21 ± 0.17.
On to RCVLVFEQVRFLMKSYSFLREAVP [SOAT2], for which the protein stability index by setting is: (treatment: DMSO) 2.54 ± 0.42; (treatment: MLN4924 1 uM, 8 h) 2.8 ± 0.38.
RDLIPPHVNFSHLTTKDYMEMYNV [SLC6A17]: the protein stability index is, setting by setting: (treatment: DMSO) 3.04 ± 0.28; (treatment: MLN4924 1 uM, 8 h) 3.23 ± 0.17.
The like results for RDVKPENFLIGRQGNKKEHVIHII [CSNK1G1] were, in that order, 2.26 ± 0.42 and 2.33 ± 0.21.
On the same counts, the results for RDYPSSRDTRDYAPPPRDYTYRDY [RBMX] are 2.87 ± 0.38 and 3.08 ± 0.35.
The like results for REPALDGGFQMHYEKTPFDQLAFI [EID1] were, in that order, 2.65 ± 0.33 and 2.43 ± 0.28.
As for REQEKKPKKEANQAPKSKSGSRPR [LRRC59], the protein stability index runs as follows: (treatment: DMSO) 5.41 ± 0.16; (treatment: MLN4924 1 uM, 8 h) 5.3 ± 0.23.
For the sequence REVEARYALQMEQLNGILLHLESE [KRT18], the protein stability index reads like this: (treatment: DMSO) 2.98 ± 0.63; (treatment: MLN4924 1 uM, 8 h) 3.16 ± 0.53.
The like results for RFHYDRNPGTDAVAQTSLEEFNVL [FATE1] were, in that order, 3.74 ± 0.24 and 3.78 ± 0.11.
The like results for RFIHLVTGCVLGSSGKVLPKWGWE [POMT2] were, in that order, 3.51 ± 1.3 and 3.15 ± 0.63.
The like results for RFLANEVLQENYTHLPKADIFALA [WEE1] were, in that order, 2.27 ± 0.2 and 2.33 ± 0.41.
In turn, RFLDYEMQNSNECKRNFVAVYDGS [NETO1] yielded a protein stability index (treatment: DMSO) of 2.96 ± 0.24 and a protein stability index (treatment: MLN4924 1 uM, 8 h) of 3.31 ± 0.85.
In the case of RGHMPEWYTKSFGHLCAAEVVKIR [DLC1], the protein stability index by setting is: (treatment: DMSO) 2.08 ± 0.23; (treatment: MLN4924 1 uM, 8 h) 2.42 ± 0.32.
For RHSKGLQILGQTLKASMRELGLLI [KCNA1], the protein stability index reads like this: (treatment: DMSO) 2.96 ± 0.5; (treatment: MLN4924 1 uM, 8 h) 2.89 ± 0.15.
On the same counts, the results for RHWHRPVLMAVSVHSERKLLPLVT [SCNN1D] are 2.23 ± 0.37 and 2.11 ± 0.26.
The like results for RITGLSPGRSALIVAVLCYINLLN [SPNS1] were, in that order, 2.35 ± 0.47 and 2.14 ± 0.29.
The like results for RKKQHICDECGKHFSQGSALILHQ [ZNF24] were, in that order, 3.53 ± 0.21 and 3.62 ± 0.41.
In turn, RKLLNRHNIVFGDYTWTEFDEPFL [TRIP13] returned a protein stability index (treatment: DMSO) of 2.24 ± 0.24 and a protein stability index (treatment: MLN4924 1 uM, 8 h) of 2.64 ± 0.22.
On the same counts, the results for RKMLEQGYSPNGRDANGWTLLHFS [ASB7] are 2.34 ± 0.14 and 2.49 ± 0.21.
On the same counts, the results for RKRTAHERAKELYSSGEFSSGRKW [INTS4] are 4.06 ± 0.32 and 4.08 ± 0.31.
The like results for RLGPLSAEGTTGLAPAGQTSEESR [TNXB] were, in that order, 5.3 ± 0.36 and 5.41 ± 0.2.
In the case of RLLGSARPELGAALGIYGAPYAAA [IRX6], the protein stability index is 2.27 ± 0.42 (treatment: DMSO) and 2.44 ± 0.47 (treatment: MLN4924 1 uM, 8 h).
In the case of RLRVELECEEGELSFYDAERHCHL [TRIM35], the protein stability index runs as follows: (treatment: DMSO) 3.66 ± 0.17; (treatment: MLN4924 1 uM, 8 h) 3.75 ± 0.075.
The like results for RLSRRMASQHSYPLNRFSSVPLDP [CBY2] were, in that order, 3.22 ± 0.27 and 3.45 ± 0.22.
On the same counts, the results for RLSVPRDSACDESSCIPKAFGNPK [IRX6] are 4.84 ± 0.18 and 4.89 ± 0.19.
Take RLVESTSLRKAIETVYAAYLPKNT [MLH1]: where the note is “treatment: DMSO”, the protein stability index worked out at 2.2 ± 0.27.
Take RMEYVHSKNLIYRDVKPENFLIGR [CSNK1G1]: the protein stability index (treatment: DMSO) amounted to 2.45 ± 0.16 and the protein stability index (treatment: MLN4924 1 uM, 8 h) is 2.79 ± 0.31.
The like results for RMGLMKANHVFFLLYLLHILLLDG [FADS1] were, in that order, 2.94 ± 0.83 and 2.68 ± 0.52.
On the same counts, the results for RMSYQDPAQLSCLPYLEHVGHNHT [NFE2L1] are 2.98 ± 0.2 and 3.12 ± 0.28.
Take RNVRERIAKNLVEKGILTTEKQNF [GOLPH3L]: the protein stability index by setting is: (treatment: DMSO) 3.73 ± 0.22; (treatment: MLN4924 1 uM, 8 h) 3.82 ± 0.2.
On the same counts, the results for RPGHLPGLLLGSHGLLGSPVRAAA [CDC25B] are 3.31 ± 0.53 and 3.09 ± 0.42.
The like results for RPVSCSGRDALLDQIRQGIQLKSV [WASL] were, in that order, 5.08 ± 0.56 and 4.95 ± 0.21.
RPYMCKECGKAFSQNSSLVQHERI [ZNF8]: the protein stability index reads like this: (treatment: DMSO) 2.82 ± 0.16; (treatment: MLN4924 1 uM, 8 h) 3.24 ± 0.45.
The like results for RQIRTNWATRKPPAPKSTYECRCI [TIA1] were, in that order, 2.56 ± 0.17 and 2.85 ± 0.45.
The like results for RQMAFDFARVKKGADGVMRTMAPE [SNAP91] were, in that order, 3.47 ± 0.38 and 3.43 ± 0.16.
The like results for RQPPPPAPQHPQPGSQALPAPALA [FBXO28] were, in that order, 4.45 ± 0.23 and 4.74 ± 0.16.
With RQVALGAMEAVRVNPLHVDSTWLL [SLC25A39], the protein stability index (treatment: DMSO) was determined as 2.53 ± 0.27 and the protein stability index (treatment: MLN4924 1 uM, 8 h) turned out to be 2.52 ± 0.069.
As for RRATSGGKWPQVLFFPEGTCSNKK [LPCAT4], the protein stability index runs as follows: (treatment: DMSO) 3.72 ± 0.31; (treatment: MLN4924 1 uM, 8 h) 3.78 ± 0.13.
The like results for RRCGKCFCDRCCSQKVPLRRMCFV [ZFYVE21] were, in that order, 2.31 ± 0.45 and 2.31 ± 0.39.
On the same counts, the results for RRGGGPVFPAPVVGSGGATSGKLL [ZBTB22] are 4.104 ± 0.027 and 4.33 ± 0.29.
The like results for RRLYHLEGFQRCDVARQLGKNNEF [PSD2] were, in that order, 2.61 ± 0.43 and 2.8 ± 0.16.
